Here are results for 4 molecules from patent US20240043542A1 (published 2024).

First the molecules themselves.
T1: cynomolgus monkey B7-H4 (recombinant, BLI) (cynomolgus monkey, UniProt Q7Z7D3 25-259 (human entry))
T1 construct: also called Cynomolgus B7-H4
T1 sequence: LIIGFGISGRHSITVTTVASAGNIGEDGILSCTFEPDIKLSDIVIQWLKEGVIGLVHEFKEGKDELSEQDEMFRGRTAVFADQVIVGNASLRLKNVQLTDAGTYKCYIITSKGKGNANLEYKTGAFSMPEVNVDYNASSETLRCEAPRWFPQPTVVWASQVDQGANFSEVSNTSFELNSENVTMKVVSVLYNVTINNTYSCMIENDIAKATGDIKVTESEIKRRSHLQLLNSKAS

T2: mouse B7-H4 (recombinant, BLI) (mouse, UniProt Q7TSP5 29-256, limits assumed)
T2 construct: also called murine B7-H4
T2 sequence: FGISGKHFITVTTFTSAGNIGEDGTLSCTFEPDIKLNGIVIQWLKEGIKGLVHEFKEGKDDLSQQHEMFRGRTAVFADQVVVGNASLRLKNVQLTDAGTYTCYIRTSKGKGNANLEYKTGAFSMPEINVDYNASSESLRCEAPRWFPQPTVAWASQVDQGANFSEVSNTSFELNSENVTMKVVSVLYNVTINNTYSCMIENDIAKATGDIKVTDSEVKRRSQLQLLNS

T3: human B7-H4 on the cell surface (human, UniProt Q7Z7D3 25-282)
T3 sequence: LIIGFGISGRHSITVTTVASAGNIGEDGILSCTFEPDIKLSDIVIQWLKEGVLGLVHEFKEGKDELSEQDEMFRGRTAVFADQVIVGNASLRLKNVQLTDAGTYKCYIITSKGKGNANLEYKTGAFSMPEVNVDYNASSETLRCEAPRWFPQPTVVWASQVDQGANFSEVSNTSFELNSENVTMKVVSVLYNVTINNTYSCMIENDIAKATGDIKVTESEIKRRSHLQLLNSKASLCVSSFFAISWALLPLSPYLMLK

B1: B7-H4 antibody 22208 (antibody, human IgG1, kappa, V domains shown)
VH: QLQLQESGPGLVKPSETLSLTCTVSGGSIKSGSHYWGWIRQPPGKGLEWIGNIYYSGSTYYNPSLKSRVTMSVDTSKNQFSLKLSSVTAADTAVYYCAREGSYPNWFDPWGQGTLVTVSS
VL: EIVMTQSPATLSVSPGERATLSCRASQSVSTNLAWYQQKPGQAPRLLIYDASARVTGIPARFSGSGSGTEFTLTISSLQSEDFAVYYCQQYHSFPFTFGGGTKVEIKR
notes: human IgG1/kappa
B2: B7-H4 antibody 20506 (antibody, V domains shown)
VH: QLQLQESGPGLVKPSETLSLTCTASGGSISHGGYYWSWIRQHPGKGLEWIGNIYYSGSTYYNPSLKSRVTMSVDTSKNQFSLKLSSVTAADTAVYYCARESSTISADFDLWGRGTLVTVSS
VL: DIQMTQSPSSVSASVGDRVTITCRASQGISRWLAWYQQKPGKAPKLLIYAASSLQSGVPSRFSGSGSGTDFTLTISSLQPEDFATYYCQQAHTFPYTFGGGTKVEIKR
notes: human IgG1/kappa
B3: B7-H4 antibody 20513 (antibody, human IgG1, kappa, V domains shown)
VH: QLQLQESGPGLVKPSETLSLTCTVSGGSISDGSYYWSWIRQHPGKGLEWIGNIYYSGSTYYNPSLRSRVTMSVDTSKNQFSLKLSSVTAADTAVYYCARGLSTIDEAFDPWGQGTLVTVSS
VL: not shown
notes: human IgG1/kappa
B4: B7-H4 antibody 22216 (antibody, human IgG1, kappa, V domains shown)
VH: B3 VH with L2V, E16Q
VL: DIQMTQSPSTLSASVGDRVTITCRASKSISSWLAWYQQKPGKAPKLLIYEASSLHSGVPSRFSGSGSGTEFTLTISSLQPDDFATYYCQQDNSYPYTFGGGTKVEIKR
notes: human IgG1/kappa

Positions count from the first letter of the chain named.

For the first experiment, the target named is T1, cynomolgus monkey B7-H4 (recombinant, …). Nature of the experiment: BLI, antigen on Protein A tips. (In general: In BLI a coated tip is dipped into the sample, and binding shifts an interference pattern.)
Protocol: (§1) Binding affinities of anti-B7-H4 antibodies to B7-H4-extracellular domain (ECD) were determined by biolayer interferometry (BLI). […] Anti-B7-H4 antibodies were then evaluated for binding.
For orientation: Kd means a measure of binding affinity in units of concentration. What is called koff is a measure of how fast the partners let go of each other. Broadly, the kon is the second-order rate constant of association. Take B1: the Kd amounted to 5.44 nM, the koff was found to be 0.00108 s⁻¹ and the kon was found to be 199000 M⁻¹ s⁻¹.
Consider B2, for which the Kd is 1.48 nM, the koff turned out to be 0.000678 s⁻¹ and the kon was found to be 458000 M⁻¹ s⁻¹.
Turning to B3, the Kd stood at 3.67 nM, the koff was found to be 0.0018 s⁻¹ and the on-rate constant (kon) stood at 491000 M⁻¹ s⁻¹.
The like results for B4 were, in that order, 1.47 nM, 0.000359 s⁻¹ and 245000 M⁻¹ s⁻¹.

The target in the next experiment is T2, mouse B7-H4 (recombinant, BLI). Nature of the experiment: BLI, antigen on Protein A tips.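 Further: Anti-B7-H4 antibodies assessed for affinity toward the B7-H4 extracellular domain using biolayer interferometry.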
Protocol: as §1
Take B1: the Kd came to 16.7 nM, the koff worked out at 0.00167 s⁻¹ and the kon worked out at 99500 M⁻¹ s⁻¹.
The like results for B2 were, in that order, 3.53 nM, 0.00164 s⁻¹ and 466000 M⁻¹ s⁻¹.
Regarding B3, the Kd was found to be 4.57 nM, the koff came to 0.00236 s⁻¹ and the kon was determined as 517000 M⁻¹ s⁻¹.
The like results for B4 were, in that order, 1.47 nM, 0.000359 s⁻¹ and 245000 M⁻¹ s⁻¹.

The next experiment has as its target T4, recombinant human B7-H4-huIgG1 (human).
T4 construct: also called B7-H4-extracellular domain (ECD)
Nature of the experiment: BLI, antigen on Protein A tips.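 Further: Anti-B7-H4 antibodies assessed for affinity toward the B7-H4 extracellular domain using biolayer interferometry.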
Protocol: as §1
Consider B1, for which the Kd is 5.67 nM, the koff was 0.00104 s⁻¹ and the kon was found to be 184000 M⁻¹ s⁻¹.
As to B2, the Kd is 1.69 nM, the koff worked out at 0.000746 s⁻¹ and the kon was 441000 M⁻¹ s⁻¹.
The like results for B3 were, in that order, 3.98 nM, 0.0018 s⁻¹ and 453000 M⁻¹ s⁻¹.
In the same order, the values of B4 are 1.47 nM, 0.000359 s⁻¹ and 245000 M⁻¹ s⁻¹.

The target of the next experiment is T3, human B7-H4 on the cell surface. Nature of the experiment: cell-based or functional assay.
Consider B2, for which the “Donor 1 Max IFNγ” value amounted to 981 pg/mL, the “Donor 2 Max IFNγ” value stood at 259 pg/mL, the “Donor 3 Max IFNγ” value was 86.1 pg/mL and the “Donor 4 Max IFNγ” value was found to be 2300 pg/mL. Besides, the “aAPC Assay EC50 (IFNγ production)” value came to 1.25 nM.
In the same order, the values of B3 are 659 pg/mL, 240 pg/mL, 91.1 pg/mL, 1630 pg/mL and 1.16 nM.
